This data set concerns the target GST-FoxO1-DBD (Mus musculus, UniProt Q9R1E0 157-268). In words: EMSA; 10 mM HEPES pH 7.8, 50 mM KCl, 1 mM EDTA, 5 mM MgCl2, 10% glycerol, 5 mM DTT, 0.4 ug/mL poly(dI-dC), 30 min on ice; 4.6% PAGE in TBE. The note with it: protein: recombinant; tags: N-terminal GST (pGEX-4T1); label: 32P (alpha-32P dCTP, Klenow fill-in); blunt after fill-in of 5' overhangs.

GST-FoxO1-DBD, sequence (Q9R1E0 157-268): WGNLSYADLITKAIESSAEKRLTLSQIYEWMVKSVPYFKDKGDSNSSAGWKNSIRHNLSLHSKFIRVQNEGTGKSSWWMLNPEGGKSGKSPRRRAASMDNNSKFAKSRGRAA

B1: Ass1 FoxO BS1 mut (dsDNA)
DNA 1: GTGTACCCAAGGACACATCTACTTTCTTTCTGATTTTGGATCCTTTGTTGGGTG
DNA 2: CACCCAACAAAGGATCCAAAATCAGAAAGAAAGTAGATGTGTCCTTGGGTACAC
Regarding B1, the binding result was “no binding”.

Values taken from paper PMC13562413, “FoxO transcription factors coordinate the urea cycle and gluconeogenesis by controlling Ass1”.
